Literature values, collected in paper PMC10474108.

Biological target: tau (full-length, nonphosphorylated) (Homo sapiens) (UniProt P10636)
UniProt P10636, sequence (P10636 2-758): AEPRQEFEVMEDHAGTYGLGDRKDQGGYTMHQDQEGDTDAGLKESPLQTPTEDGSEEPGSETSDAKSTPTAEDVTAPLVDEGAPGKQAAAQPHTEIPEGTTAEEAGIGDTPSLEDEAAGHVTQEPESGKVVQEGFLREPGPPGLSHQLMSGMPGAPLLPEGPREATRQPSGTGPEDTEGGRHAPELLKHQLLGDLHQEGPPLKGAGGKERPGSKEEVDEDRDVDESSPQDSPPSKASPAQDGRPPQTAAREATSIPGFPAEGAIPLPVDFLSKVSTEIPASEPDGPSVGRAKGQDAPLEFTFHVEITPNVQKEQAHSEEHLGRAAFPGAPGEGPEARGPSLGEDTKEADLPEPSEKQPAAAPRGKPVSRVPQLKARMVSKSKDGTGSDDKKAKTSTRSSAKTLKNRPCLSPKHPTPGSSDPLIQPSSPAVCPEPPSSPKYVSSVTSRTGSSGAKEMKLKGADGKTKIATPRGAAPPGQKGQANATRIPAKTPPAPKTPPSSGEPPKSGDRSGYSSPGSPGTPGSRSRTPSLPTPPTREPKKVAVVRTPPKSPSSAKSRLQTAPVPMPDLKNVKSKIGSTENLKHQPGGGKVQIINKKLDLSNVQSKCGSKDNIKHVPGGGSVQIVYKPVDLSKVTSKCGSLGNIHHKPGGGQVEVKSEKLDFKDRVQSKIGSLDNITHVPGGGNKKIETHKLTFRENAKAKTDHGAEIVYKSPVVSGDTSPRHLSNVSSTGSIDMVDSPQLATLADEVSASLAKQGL

LRP1 (from UniProt Q07954)
Kd: 60 nM
